US20220144895A1, “DE NOVO DESIGN OF TUNABLE PH-DRIVEN CONFORMATIONAL SWITCHES” (University of Washington, priority 2019, published 2022)

What was measured:
U2-OS cells = conditions: Bafilomycin A 1 μM, Chloroquine 50 μM as controls; cited from earlier work
[1] = biological target: the molecule itself; experiment: native mass spectrometry at the indicated pH
Experimental: Samples were buffer exchanged twice into 200 mM ammonium acetate (NH₄Ac; MilliporeSigma) using Micro Bio-Spin P-6 columns (Bio-Rad). Protein concentrations were determined by UV absorbance using a Nanodrop 2000c spectrophotometer (Thermo Fisher Scientific) and diluted to make up a 10-fold stock solution (50 μM and 16.7 μM monomer and trimer concentration, respectively). 1 μL of this solution was mixed with 9 μL 200 mM NH₄Ac/50 mM triethylammonium acetate (TEAA; MilliporeSigma), adjusted with acetic acid (Fisher Scientific) to obtain the desired final pH and incubated on ice for 30 min.

[2] = biological target: T1, pRO-4 Chain B (heterodimer pRO-4), hexahistidine tag cleaved; experiment: SEC and native mass spectrometry; heterodimer
T1 construct: The tag was removed for all pH experiments
T1 chain: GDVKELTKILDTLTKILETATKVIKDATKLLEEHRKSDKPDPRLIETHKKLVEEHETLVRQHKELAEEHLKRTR

[3] = Size-exclusion chromatography (SEC); assay type: physicochemical; conditions: high concentration
Experimental: Cells were lysed by microfluidization in the presence of 1 mM PMSF. Lysates were clarified by centrifugation at 24,000 ref at 4° C. for at least 30 minutes. Proteins were purified by Immobilized metal affinity chromatography (IMAC): supernatant was applied to Ni-NTA (Qiagen) columns pre-equilibrated in lysis buffer. The column was washed twice with 15 column volumes (CV) of wash buffer (25 mM Tris pH 8.0 at room temperature, 300 mM NaCl, 40 mM Imidazole), followed by 3-5 CV of high-salt wash buffer (25 mM Tris pH 8.0 at room temperature, 1 M NaCl, 40 mM Imidazole) then an additional 15 CV of wash buffer. Protein was eluted with 250 mM Imidazole, and buffer-exchanged into 25 mM Tris pH 8.0 and 150 mM NaCl without imidazole for cleavage of the N-terminal hexahistidine tag by purified hexahistidine-tagged TEV protease (with the exception of design pRO-1, which was cleaved using restriction grade thrombin (EMD Millipore 69671-3) at room temperature for 4 hours or overnight, using a 1:3000 dilution of enzyme into sample solution). A second Ni-NTA step was used to remove hexahistidine tag, uncleaved sample and the hexahistidine-tagged TEV protease, and the cleaved proteins were then […], 150 mM NaCl, and 2% glycerol.

[4] = Native mass spectrometry of pH-induced changes in oligomeric state; assay type: physicochemical; conditions: native MS
Experimental: Samples were buffer exchanged twice into 200 mM ammonium acetate (NH4Ac; MilliporeSigma) using Micro Bio-Spin P-6 columns (Bio-Rad). Protein concentrations were determined by UV absorbance using a Nanodrop 2000c spectrophotometer (Thermo Fisher Scientific) and diluted to make up a 10-fold stock solution (50 μM and 16.7 μM monomer and trimer concentration, respectively). 1 μL of this solution was mixed with 9 μL 200 mM NH4Ac/50 mM triethylammonium acetate (TEAA; MilliporeSigma), adjusted with acetic acid (Fisher Scientific) to obtain the desired final pH and incubated on ice for 30 min. […] 5 μL samples were filled into an in-house pulled glass capillary and ionized by nESI at a monomer or a trimer concentration of 5 μM or 1.67 μM respectively. All pH titration data were acquired on an in-house modified SYNAPT® G2 HDMS (Waters Corporation) with a surface-induced dissociation (SID) device incorporated between a truncated trap traveling wave ion guide and the ion mobility cell (39). The following instrument parameters were used spray voltage 0.9-1.3 kV; sampling cone, 20 V; extraction cone, 2 V; source temperature, room temperature; trap gas flow, 4 mL/min; trap bins, 45V. The data were processed with MassLynx™ v4.1 and DriftScope™ v2.1. For relative quantification, charge state series were extracted from DriftScope™, and smoothed spectra (mean; window 20; number of smooths 20) were integrated.
Python scripts were written to generate theoretical models according Equation 1, and curve-fitting to native mass spectrometry data (FIGS. 1, 3, 5) according to Equation 2 by nonlinear least squares using curve fit from scipy.optimize. The free energy estimates for individual n, m, and l layers used in Equation 1 modeling were estimated by solving linear equations as follows: values for the free energy of folding for designs pRO-2 and variants were estimated from GdmCl denaturation experiments (FIG. 11); each of these designs have different numbers of n, m, and l layers, thus series of linear equations relating the number of each layer type to the total free energies of folding were solved to estimate dG values of the individual layers of each type.

CO/C1=C\C(C)=C\[C@@H](C)[C@@H](O)[C@@H](C)C/C(C)=C/C=C/[C@H](OC)[C@@H]([C@@H](C)[C@@H](O)[C@H](C)[C@@]2(O)C[C@@H](O)[C@H](C)[C@@H](C(C)C)O2)OC1=O [Bafilomycin A]
effect on lysosomal pH (known drugs) (U2-OS cells): known to neutralize lysosomal pH

CCN(CC)CCCC(C)Nc1ccnc2cc(Cl)ccc12 (stereo not drawn) [Chloroquine]
effect on lysosomal pH (known drugs) (U2-OS cells): known to neutralize lysosomal pH

B1: pRO-2 I56V subunit (designed binder)
chain: GSEYEIRKALEELKAATAELKRATASLRAITEELKKNPSEDALVEHNRAIVEHNAIVVEHNRIIAAVLELIVRAIK
notes: forms a homotrimer; Tag-free form, and the entry already carries I56V
binding result [1]: binds

B2: pRO-4 Chain A (heterodimer pRO-4) (designed binder)
chain: MDEEDHLKKLKTHLEKLERHLKLLEDHAKKLEDILKERPEDSAVKESIDELRRSIELVRESIEIFRQSVEEEE
binding result [2]: binds

B3: pRO-1: designed homotrimer, SEQ ID NO: 13-14 (protein)
chain 1: MGSSHHHHHHSSGLVPRGSHMGTLKEVLERLEEVLRRHREVAREHQRWAREHEQWVRDDPNSAKWIAESTRWILETTDAISRTADVLAEAIRVLAESD
chain 2: GSHMGTLKEVLERLEEVLRRHREVAREHQRWAREHEQWVRDDPNSAKWIAESTRWILETTDAISRTADVLAEAIRVLAESD
oligomeric state by SEC [3]: trimeric at high concentration
oligomeric state at pH 7 / neutral pH [4]: primarily dimeric
